Earlier results as cited in paper PMC12687463.
Like-named read-outs stand apart in the source and are kept apart here.

Columns and labels:
[1] = target: glucokinase regulatory protein (GKRP) (Homo sapiens) (UniProt Q14397)
[2] = target: glucokinase regulatory protein (GKRP) (Homo sapiens) (UniProt Q14397); remark: listed apart in the source
[3] = target: glucokinase regulatory protein (GKRP) (Homo sapiens) (UniProt Q14397); remark: listed apart in the source

Sequence of glucokinase (P35557 whole entry): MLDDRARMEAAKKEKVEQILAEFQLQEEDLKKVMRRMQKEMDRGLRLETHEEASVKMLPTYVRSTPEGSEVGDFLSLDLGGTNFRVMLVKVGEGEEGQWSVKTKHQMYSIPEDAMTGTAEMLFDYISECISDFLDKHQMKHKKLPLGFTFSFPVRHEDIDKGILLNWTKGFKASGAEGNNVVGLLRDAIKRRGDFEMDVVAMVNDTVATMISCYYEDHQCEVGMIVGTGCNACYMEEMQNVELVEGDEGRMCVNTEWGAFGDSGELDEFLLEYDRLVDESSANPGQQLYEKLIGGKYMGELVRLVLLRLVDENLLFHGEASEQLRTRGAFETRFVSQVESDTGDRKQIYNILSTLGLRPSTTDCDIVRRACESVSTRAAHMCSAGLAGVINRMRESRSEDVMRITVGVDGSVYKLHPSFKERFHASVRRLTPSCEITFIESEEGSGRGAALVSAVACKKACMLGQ
Sequence of UniProt Q14397 (Q14397 whole entry): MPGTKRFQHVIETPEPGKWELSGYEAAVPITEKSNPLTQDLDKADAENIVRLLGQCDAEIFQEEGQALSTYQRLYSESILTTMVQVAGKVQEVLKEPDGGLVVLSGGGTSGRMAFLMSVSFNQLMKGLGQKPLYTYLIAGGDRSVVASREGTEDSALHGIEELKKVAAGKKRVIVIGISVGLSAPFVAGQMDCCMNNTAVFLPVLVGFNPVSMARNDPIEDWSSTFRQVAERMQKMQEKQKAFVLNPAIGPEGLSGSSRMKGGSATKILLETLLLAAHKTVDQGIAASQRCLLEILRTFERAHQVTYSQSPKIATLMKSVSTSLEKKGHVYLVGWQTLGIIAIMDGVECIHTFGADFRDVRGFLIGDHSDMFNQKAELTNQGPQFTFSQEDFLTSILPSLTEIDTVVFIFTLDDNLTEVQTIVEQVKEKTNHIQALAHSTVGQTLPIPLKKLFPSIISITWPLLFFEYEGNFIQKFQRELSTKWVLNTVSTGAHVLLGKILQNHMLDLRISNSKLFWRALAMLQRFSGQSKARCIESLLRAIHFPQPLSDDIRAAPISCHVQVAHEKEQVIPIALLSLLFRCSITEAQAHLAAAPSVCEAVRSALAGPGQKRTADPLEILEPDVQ

glucokinase (from UniProt P35557)
Ki [1]: 45 nM
Ki [2]: 7000 nM
Ki [3]: 984 nM
